Test results published in paper PMC6405639.

Molecular target: 5(6)-TAMRA-Ahx(5-24)NPY (porcine)
Test: fluorescence polarisation; homogenous binding assay; 5 nM 5(6)-TAMRA-Ahx(5-24)NPY with increasing concentrations of affinity purified Y2R_cysteine_deficient in Brij-58 micelles in binding buffer, 60 min, room temperature; fall of fluorescence in the S-plane; the paper says that the EC50 constitutes the Kd

EC50: 49 nM
B1: Y2R_cysteine_deficient with C-terminal deca-histidine-tag (cell-free expressed) (receptor)
chain: MGPIGAEADENQTVEEMKVEQYGPQTTPRGELVPDPEPELIDSTKLIEVQVVLILAYASIILLGVIGNSLVIHVVIKFKSMRTVTNFFIANLAVADLLVNTLSLPFTLTYTLMGEWKMGPVLCHLVPYAQGLAVQVSTITLTVIALDRHRSIVYHLESKISKRISFLIIGLAWGISALLASPLAIFREYSLIEIIPDFEIVACTEKWPGEEKSIYGTVYSLSSLLILYVLPLGIISFSYTRIWSKLKNHVSPGAANDHYHQRRQKTTKMLVAVVVVFAVSWLPLHAFQLAVDIDSQVLDLKEYKLIFTVFHIIAMASTFANPLLYGWMNSNYRKAFLSAFRAEQRLDAIHSEVSVTFKAKKNLEVRKNSGPNDSFTEATNV
